Experimental data from the DeepSol protein solubility set.

Experiment: soluble on expression in E. coli; label from the status in PepcDB or PDB records

MGSDKIHHHHHHMTNENELLYSSELQLSALNEAIEATPDNPYLYFKRATYFYNINNFRIAQNDIQKALRMDESVAAYWLLSAQINNELKNVDRAIEEGQKALQLGNAEPILYALLANCLLEKNDTISANQYIGKLTAIAPQMAELKYVQAKKLLIGKDTSHSFLKFRECIQNNPQYIEAYIDLMSLYYKKQMYDSIMPLLIKAKRMRPNNPTLFLYEGKFYETINKNQVALAAYKEGLLCDPQAIELYKPLSDYYGRQGNYKESMYYLSKWIEKNSSDAQSIIKMGNYALKQNDEAGAVTYYKNSLSIDSSNTYLKKEIERIEKHIRYVAQDTTN
soluble on expression in E. coli: not soluble

MTNDNSGIWVLGYGSLIYKPPSHYTHRIPAIIHGFARRFWQSSTDHRGTPANPGRVATLIPYEDIIRQTAFLKNVNLYSESAPIQDPDDLVTIGVVYYIPPEHAQEVREYLNVREQNGYTLHEVEVHLETNREHEAELGEALEQLPRHNKSGKRVLLTSVYIGTIDNEAFVGPETVDETAKVIAVSHGPSGSNYEYLAKLEQALAQMPIMKERGRITDHYLTALLETVNKYR
soluble on expression in E. coli: soluble

MQILTLISWDFKRNNNFFNQAVLNPYEYWADILEKNGISRYVILLTCNRVEIYLRAGFPEDLEAMKPNVLHDEEAIKHLMEVSSGLDSMSLGENEILKQVKEAYELSVRNGKVDKVLSLIFQKAIFVGKKVRSETEISRGKVSVPSIVYDILSSRVVQKVLIIGNGMIAGEIAPYLSGKFEVTIAGRNIDHVKDLASKYNYSYTTINDLHELIMRNDAIISATSSKTPIIRREEMVEGKLYIDLGNPRNIEDKPGADIITIDDIYSVSNRNGSARMESVDEARRIIEIEMASLMNKIKDVMIDEIFADFYKFAVVVQKMEIEKFSRMHPEIPASDVEAFAHSMINKVMNIPVMTLKSVARSQSNQDFSRIFSKFYDNFSDLVSAALQSYEGRQDTQSLRDRTRRLLQRS
soluble on expression in E. coli: not soluble

MVDPVGFAEAWKAQFPDSEPPRMELRSVGDIEQELERCKASIRRLEQEVNQERFRMIYLQTLLAKEKKSYDRQRWGFRRAAQAPDGASEPRASASRPQPAPADGADPPPAEEPEARPDGEGSPGKARPGTARRPGAAASGERDDRGPPASVAALRSNFERIRKGHGQPGADAEKPFYVNVEFHHERGLVKVNDKEVSDRISSLGSQAMQMERKKSQHGAGSSVGDASRPPYRGRSSESSCGVDGDYEDAELNPRFLKDNLIDANGGSRPPWPPLEYQPYQSIYVGGMMEGEGKGPLLRSQSTSEQEKRLTWPRRSYSPRSFEDCGGGYTPDCSSNENLTSSEEDFSSGQSSRVSPSPTTYRMFRDKSRSPSQNSQQSFDSSSPPTPQCHKRHRHCPVVVSEATIVGVRKTGQIWPNDGEGAFHGDADGSFGTPPGYGCAADRAEEQRRHQDGLPYIDDSPSSSPHLSSKGRGSRDALVSGALESTKASELDLEKGLEMRKWVLSGILASEETYLSHLEALLLPMKPLKAAATTSQPVLTSQQIETIFFKVPELYEIHKEFYDGLFPRVQQWSHQQRVGDLFQKLASQLGVYRAFVDNYGVAMEMAEKCCQANAQFAEISENLRARSNKDAKDPTTKNSLETLLYKPVDRVTRSTLVLHDLLKHTPASHPDHPLLQDALRISQNFLSSINEEITPRRQSMTVKKGEYRQLLKDSFMVELVEGARKLRHVFLFTDLLLCTKLKKQSGGKTQQYDCKWYIPLTDLSFQMVDELEAVPNIPLVPDEELDALKIKISQIKSDIQREKRANKGSKATERLKKKLSEQESLLLLMSPSMAFRVHSRNGKSYTFLISSDYERAEWRENIREQQKKCFRSFSLTSVELQMLTNSCVKLQTVHSIPLTINKEDDESPGLYGFLNVIVHSATGFKQSSNLYCTLEVDSFGYFVNKAKTRVYRDTAEPNWNEEFEIELEGSQTLRILCYEKCYNKTKIPKEDGESTDRLMGKGQVQLDPQALQDRDWQRTVIAMNGIEVKLSVKFNSREFSLKRMPSRKQTGVFGVKIAVVTKRERSKVPYIVRQCVEEIERRGMEEVGIYRVSGVATDIQALKAAFDVNNKDVSVMMSEMDVNAIAGTLKLYFRELPEPLFTDEFYPNFAEGIALSDPVAKESCMLNLLLSLPEANLLTFLFLLDHLKRVAEKEAVNKMSLHNLATVFGPTLLRPSEKESKLPANPSQPITMTDSWSLEVMSQVQVLLYFLQLEAIPAPDSKRQSILFSTEV
soluble on expression in E. coli: soluble

MERREEQPGAAGAGAAPALDFTVENVEKALHQLYYDPNIENKNLAQKWLMQAQVSPQAWHFSWQLLQPDKVPEIQYFGASALHIKISRYWSDIPTDQYESLKAQLFTQITRFASGSKIVLTRLCVALASLALSMMPDAWPCAVADMVRLFQAEDSPVDGQGRCLALLELLTVLPEEFQTSRLPQYRKGLVRTSLAVECGAVFPLLEQLLQQPSSPSCVRQKVLKCFSSWVQLEVPLQDCEALIQAAFAALQDSELFDSSVEAIVNAISQPDAQRYVNTLLKLIPLVLGLQEQLRQAVQNGDMETSHGICRIAVALGENHSRALLDQVEHWQSFLALVNMIMFCTGIPGHYPVNETTSSLTLTFWYTLQDDILSFEAEKQAVYQQVYRPVYFQLVDVLLHKAQFPSDEEYGFWSSDEKEQFRIYRVDISDTLMYVYEMLGAELLSNLYDKLGRLLTSSEEPYSWQHTEALLYGFQSIAETIDVNYSDVVPGLIGLIPRISISNVQLADTVMFTIGALSEWLADHPVMINSVLPLVLHALGNPELSVSSVSTLKKICRECKYDLPPYAANIVAVSQDVLMKQIHKTSQCMWLMQALGFLLSALQVEEILKNLHSLISPYIQQLEKLAEEIPNPSNKLAIVHILGLLSNLFTTLDISHHEDDHEGPELRKLPVPQGPNPVVVVLQQVFQLIQKVLSKWLNDAQVVEAVCAIFEKSVKTLLDDFAPMVPQLCEMLGRMYSTIPQASALDLTRQLVHIFAHEPAHFPPIEALFLLVTSVTLTLFQQGPRDHPDIVDSFMQLLAQALKRKPDLFLCERLDVKAVFQCAVLALKFPEAPTVKASCGFFTELLPRCGEVESVGKVVQEDGRMLLIAVLEAIGGQASRSLMDCFADILFALNKHCFSLLSMWIKEALQPPGFPSARLSPEQKDTFSQQILRERVNKRRVKEMVKEFTLLCRGLHGTDYTADY
soluble on expression in E. coli: soluble

HMTELLKNHVAGQWIAGTGAGITLTDPVTGVALVRVSSEGLDLARAFSFAREDGGAALRALTYAQRAARLADIVKLLQAKRGDYYAIATANSGTTRNDSAVDIDGGIFTLSYYAKLGASLGEVHALRDGSAESLSKDRSFSAQHVLSPTRGVALFINAFNFPSWGLWEKAAPALLSGVPVIVKPATATAWLTQRMVADVVDAGILPPGALSIICGSSAGLLDQIRSFDVVSFTGSADTAATLRAHPAFVQRGARLNVEADSLNSAILCADATPDTPAFDLFIKEVVREMTVKSGQKCTAIRRAFVPEAALEPVLEALKAKLAKITVGNPRNDAVRMGSLVSREQYENVLAGIAALREEAVLAYDSSAVPLIDADANIAACVAPHLFVVNDPDNATLLHDVEVFGPVASVAPYRVTTDTNALPEAHAVALARRGQGSLVASIYSNDDAHLGRLALELADSHGRVHAISPSVQHSQTGHGNVMPMSLHGGPGRAGGGEELGGLRALAFYHRRSAIQAASAAIGTLTQATHWPAA
soluble on expression in E. coli: soluble

MGSDKIHHHHHHMDSNIDVEILSILSEASAPVGAKIIADSLKDRGYDIGERAVRYHLKVLDENSLTKKLGYSGREITEKGIEELEKANISFRIGSVFSQVIEKLYLSDFPSKVLINTAKFEGDYKTIKEMVLRSFEAGYSVGDYLNIKKKGNTVSVETLCSITFDNFLLKNGIIPTPEYGGIVKFEDYEPVNFEGVIDFKSSSIDPLVAFIMQGKTDVIGVIENGEGLVPANFRVIPKSSEKQFETILKKDMLNSVLAYGTENVLGMNLNPEQIGVVLVGGLTPLCVPHESGYTADISAATQLKDISSMEKKTKGFLEAKKKKGKFKVTPVLSKMLSKMQTINYDIEDKKGNVVVNTAKIPIEYKEEAINALKDSYENKLAISDRLKVECDDKFLNAYTICSLTVDGVFLKNKIPVIPYYGGILEVKADKKRFIEAIDYEGTSLDPHEVFFNKADGKNYILAGIRKVPMSASEKLIELNEKLGWNSIIEIGRPNNDICGVRVEKCMFGITTIGGTNPFANIRKNNIPVEMKTLHKSIDYSELTHYDDI
soluble on expression in E. coli: not soluble

MVAKKWVYYFGGGNADGNKNMKELLGGKGANLAEMVNLGIPVPPGFTITTEACKTYQETETIPQEVADQVRENVSRVEKEMGAKFGDPANPLLFSVRSGAAASMPGMMDTVLNLGLNKVTVDAWVRRAPRLERFVYDSYRRFITMYADIVMQVGREDFEEALSRMKERRGTKFDTDLTASDLKELCDGYLELFELKTGCSFPQDPVMQLFAAIKAVFRSWGNPRATIYRRMNNITGLLGTAVNVQAMVFGNINDRSATGVAFSRSPSTGENFFFGEYLVNAQGEDVVAGIRTPQQINHSLSLRWAKAHGVGEEERRKRYPSMEEAMPENYRLLCDVRKRLENHYRDMQDLEFTVQDGRLWLLQCRNGKRTIHAAVRIAIDMVNEGLISREEAVLRIDPYQVDHLMHPNLEPGAEKANKPIGRGLAASPGAAVGQVVFDAESAKEWSGRGKKVIMVRLETSPEDLAGMDAACGILTARGGMTSHAAVVARGMGKCCVSGCGDMVIRGKSFKLNGSVFREGDYITIDGSKGLIYAGKLKLRSPDLKGSFQTILQWCQEMKRLGVRTNADTPADAAKARSFGAEGVGLCRTEHMFFEGSRINFIREMILADSASGRKAALDKLLPIQRADFVGILRAMRGLPVTIRLLDPPLHEFVPHDAAAQFELAQKLGMPAEKVRNRVNALHELNPMLGHRGCRLGITYPEIYNMQVRAIIEAAIAVSEEGSSVIPEIMVPLVGKKEELSLIREEVVKTAEAVITKSGKRVHYTVGTMIEVPRAAVTADSIAQKADFFSFGTNDLTQMGCGFSRDDAGPFLRHYGNLGIYAQDPFQSIDQEGIGELVRIAVTKGRRVKPMLKMGICGEHGGDPATIGFCHKVGLDYVSCSPFRVPVAIVAAAHASIKDRRAAMKARKGFAAKL
soluble on expression in E. coli: soluble

SSDLEDDETPQLSAHALAALQEFYAEQKQQIEPGEDDKYNIGIIEENWQLSQFWYSQETALQLAQEAIAAVGEGGRIACVSAPSVYQKLRELCRENFSIYIFEYDKRFAMYGEEFIFYDYNNPLDLPERIAAHSFDIVIADPPYLSEECLRKTSETVKYLTRGKILLCTGAIMEEQAAELLGVKMCTFVPRHTRNLANEFRCYVNYDSGLDCGI
soluble on expression in E. coli: soluble

MGSNPPASPLQDNLVIALHSYEPSHDGDLGFEKGEQLRILEQSGEWWKAQSLTTGQEGFIPFNFVAKANSLEPEPWFFKNLSRKDAERQLLAPGNTHGSFLIRESESTAGSFSLSVRDFDQNQGEVVKHYKIRNLDNGGFYISPRITFPGLHELVRHYTNASDGLCTRLSRPCQT
soluble on expression in E. coli: soluble

MGSDKIHHHHHHMIFINSRFLTQDVSGVQRYAEQMCRALQRLRNDLIFVAPRNIRLHDCAKALDVQHIGHATGHLWEQVDLPLHLKRKGNPLLVSISNTGPMFYANQIATHHDINYVRYPQSYTRLFRLAYRTITPILLSRARTLITGSSFSRGEIASFYGYAEDKVLVLPAAVSDDFTPRAVHRDQPDYLLAVSSPAAHKNFNRMIQAFLSLRGHADLQLHIVGAASSLFADPNLQRLACRDPRIRFLGRLSDAELIEQYQGASAFVFPSLYEGFGIPPLEAQACGCPVLAANAASIPEVLQASALYFDPLDVSHMAAAMHRVLSDAPLRQALRRQGLKNVQRFSWEISAQRLSQRIDALLEPAVQGKHHVAPESSPGKP
soluble on expression in E. coli: not soluble

MGSDKIHHHHHHASCSGGDKSKAPVVSTADIENAAEVIKYYNTSLGVLKDMVKEKDVNAVLDYMEQKGKTPALSAIVPPAVVSKDSAIVLNPGNCFNEETRRNLKQNYTGLFQARTEFYANFDTYLSYLKKKDVTNAKKLLDVNYQLSTQMSEYKQNIFDILSPFTEQAELVLLVDNPLKAQIMSVRKMSSTMQSILNLYARKHRMDGPRIDLKVAELTKQLDAAKKLPVVNGHEGEMKSYQAFLSQVETFIKQVKKVREKGEYSDADYDMLTSAFETSII
soluble on expression in E. coli: not soluble

MSLEIHFEKVTSDNRKAVENLQVFAEQQAFIESMAENLKESDQFPEWESAGIYDGNQLIGYAMYGRWQDGRVWLDRFLIDQRFQGQGYGKAACRLLMLKLIEKYQTNKLYLSVYDTNSSAIRLYQQLGFVFNGELDTNGERVMEWTHQNKEGGSHHHHHH
soluble on expression in E. coli: soluble
